Nine molecules from patent CN112390885A (KAIHUI SCIENCE & TECH DEVELOPMENT SHANGHAI CO LTD, dated 2021) can be followed below.

Positions count from the first letter of the chain named.

Assay [1] has as its target 人源TROP2, full length, on transfected cells (CHOK1-hTROP2 2B2; 293F-TROP2 6F6) (human) (UniProt P09758). The experiment in a line: FACS on CHOK1-TROP2 cells.
For assay [2], the target named is T1, 人源TROP2, full length, on transfected cells (CHOK1-hTROP2 2B2; 293F-TROP2 6F6) (human, UniProt P09758 27-323).
T1 construct: Full-length human TROP2 expressed from pIRES in CHOK1 or HEK293 cells; the host cell is named under assay; also called CHOk1-TROP2; CHOK-TROP2
T1 sequence: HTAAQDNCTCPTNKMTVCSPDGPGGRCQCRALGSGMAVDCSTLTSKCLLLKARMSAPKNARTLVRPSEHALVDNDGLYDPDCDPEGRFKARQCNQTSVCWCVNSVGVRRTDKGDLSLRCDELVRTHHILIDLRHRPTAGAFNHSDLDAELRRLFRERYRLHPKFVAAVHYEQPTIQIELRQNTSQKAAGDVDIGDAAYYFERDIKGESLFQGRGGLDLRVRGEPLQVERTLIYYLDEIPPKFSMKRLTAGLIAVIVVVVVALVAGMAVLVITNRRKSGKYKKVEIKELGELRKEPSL
The experiment in a line: FACS on CHOK1-TROP2 cells (reference antibody).

In assay [3] the target is T2, 人TROP2-his (CAT#10428-H08H-100, Sino biological) (human, UniProt P09758 27-274).
T2 construct: Bought; also called 人TROP2-his抗原; not shown: His tag
T2 sequence (looked up): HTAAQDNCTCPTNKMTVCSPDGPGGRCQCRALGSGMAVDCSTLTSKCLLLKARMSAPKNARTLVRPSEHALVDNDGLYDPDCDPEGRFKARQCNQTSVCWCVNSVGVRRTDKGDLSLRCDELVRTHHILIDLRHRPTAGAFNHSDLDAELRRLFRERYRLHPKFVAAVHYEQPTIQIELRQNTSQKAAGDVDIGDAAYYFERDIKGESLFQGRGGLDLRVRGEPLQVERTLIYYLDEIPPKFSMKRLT
The experiment in a line: SPR (Biacore), antibody captured by human Fab capture on CM5, human TROP2-his flowed. (In general: In SPR one partner is held on a chip, and binding of the other changes the refractive index at the surface.)

In assay [4] the target is T3, 人源TROP2-hFc蛋白 (免疫原A; human TROP2 Thr88-Thr274 with human IgG Fc tag) (human, UniProt P09758 88-274).
T3 construct: also called hTROP2-hFc; 人TROP2-hFc蛋白; not shown: human IgG Fc fragment (hFc) of the pCpC vector
T3 sequence: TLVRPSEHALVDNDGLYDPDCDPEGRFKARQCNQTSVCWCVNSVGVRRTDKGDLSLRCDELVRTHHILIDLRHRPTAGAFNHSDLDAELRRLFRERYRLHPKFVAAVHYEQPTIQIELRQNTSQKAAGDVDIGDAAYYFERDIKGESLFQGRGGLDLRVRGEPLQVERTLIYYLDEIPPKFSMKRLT
The experiment in a line: ELISA, hTROP2-hFc coated at 1.0 μg/mL.

Assay [5] has as its target T1, 人源TROP2, full length, on transfected …. The experiment in a line: FACS on CHOK1-hTROP2 cells.
In assay [6] the target is T4, 食蟹猴TROP2, full length, on CHOK1 cells (CHOK1-cTROP2 2B2C2) (cynomolgus monkey, UniProt P09758 27-323 (human entry)).
T4 chain: T1 sequence with M36V, S67N, I204V, M266V, T272S
Nature of the assay: FACS on CHOK1-cTROP2 cells.

For assay [7], the target named is T1, 人源TROP2, full length, on transfected …. Nature of the assay: FACS on CHOK1-TROP2 cells.

The Kd is the constant that tells how readily two partners part at equilibrium. Higher therefore signals weaker binding. For orientation: koff means the first-order rate constant of dissociation. High values mean fast dissociation, low ones slow dissociation. Broadly, the kon is a measure of how fast the partners come together. Low values mean slow association, high ones fast association.

B1: 嵌合抗体11E8-3 (heavy chain CDR2 DG→EG) (antibody, human IgG1, V domains shown)
VH: QVQLQQSGAELVRPGSSVKISCKASGVAFSTYWMNWVRQRPGQGLEWIGQIYPGEGDTNSNGKFKGKATLTADKSSSTAYMQFSSLTSEDSAVYFCATRIPDHYGSDWGYFDVWGAGTTV
VL: DIVLTQSPASLAVSLGQRATISCRASKSVSTSGYSYMHWYQQKPGQPPKLLIYLASNLESGVPARFSGSGSGTDFTLNIHPVEEEDAATYYCQHSRELPPTFGGGTKLEIK
In assay [1], B1 gave a decrease of maximal MFI against wild-type chimeric 11E8 of 53%.

B2: 嵌合抗体11E8 (野生型) (antibody, V domains shown)
VH: B1 VH with E55D
VL: B1 VL
notes: also called 野生型抗体嵌合抗体11E8
Consider B2, for which the binding result in assay [2] is given as “binds”.

B3: 嵌合抗体11E8-2 (heavy chain CDR2 DG→SG) (antibody, human IgG1, V domains shown)
VH: B1 VH with E55S
VL: B1 VL
Consider B3, for which, in assay [1], the decrease of maximal MFI against wild-type chimeric 11E8 came out at 23%.

B4: 嵌合抗体11E8(DA,NA) (antibody, V domains shown)
VH: B1 VH with E55D, G56A, G62A
VL: B1 VL
In assay [3], B4 showed a dissociation constant (Kd) of 10.3 nM, a koff of 0.00107 s⁻¹ and an on-rate (kon) of 105000 M⁻¹ s⁻¹.

B5: TROP2抗体 11E8E6D11 (antibody, V domains shown)
VH: B1 VH with E55D
VL: B1 VL
notes: Mouse hybridoma antibody
For B5, the binding result in assay [4], in assay [5] and in assay [6] was “binds” throughout.

B6: 嵌合抗体11E8-1 (heavy chain CDR2 NG→NA) (antibody, human IgG1, V domains shown)
VH: B1 VH with E55D, G62A
VL: B1 VL
notes: Human IgG1/kappa chimera; also called 突变抗体嵌合抗体11E8-1
For B6, the binding result in assay [7] is given as “binds”.

B7: 嵌合抗体11E8-4 (heavy chain CDR2 DG→DA) (antibody, human IgG1, V domains shown)
VH: B1 VH with E55D, G56A
VL: B1 VL
notes: Human IgG1/kappa chimera; also called 突变体嵌合抗体11E8-4
On to B7, for which, in assay [7], the binding result is reported as “binds”.

B8: hRS7 (antibody, V domains shown)
VH: QVQLQQSGSELKKPGASVKVSCKASGYTFTNYGMNWVKQAPGQGLKWMGWINTYTGEPTYTDDFKGRFAFSLDTSVSTAYLQISSLKADDTAVYFCARGGFGSSYWYFDVWGQGSLVTVSS
VL: DIQLTQSPSSLSASVGDRVSITCKASQDVSIAVAWYQQKPGKAPKLLIYSASYRYTGVPDRFSGSGSGTDFTLTISSLQPEDFAVYYCQQHYITPLTFGAGTKVEIKR
In assay [3], B8 had a Kd of 1.21 nM, a koff of 0.000271 s⁻¹ and an on-rate (kon) of 225000 M⁻¹ s⁻¹.

B9: hTINA1-H1L1 (antibody, V domains shown)
VH: QVQLVQSGAEVKKPGASVKVSCKASGYTFTTAGMQWVRQAPGQGLEWMGWINTHSGVPKYAEDFKGRVTISADTSTSTAYLQLSSLKSEDTAVYYCARSGFGSSYWYFDVWGQGTLVTVSS
VL: B8 VL with L4M, S20T, I31T, D60S, A100Q, V104L
In assay [3], B9 came in with a Kd of 20.7 nM, a koff of 0.00293 s⁻¹ and a kon of 141000 M⁻¹ s⁻¹.
